In patent US20090053725 (United States as represented by Secretary of the Air Force, published 2009):

How the values were obtained:
Ovalbumin = Ovalbumin (UniProt P01012 P01012:2-386); assay: control protein, no fluorescence increase; same conditions; Example 1 likewise no increase; conditions: tags: Sigma-Aldrich; immobilized on maleic anhydride plate; label: Birch Yellow T1 Evitag quantum dot on plus strand; BHQ2 quencher on negative strand; partial duplex, 3' 19 nt of the aptamer paired, 5' single-stranded overhang
Shiga toxin = Shiga toxin (UniProt Q9FBI2;Q7BQ98 Q9FBI2:23-315,Q7BQ98:21-89)
Shiga toxin, sequence (Q9FBI2 23-315, chain 1 of 2): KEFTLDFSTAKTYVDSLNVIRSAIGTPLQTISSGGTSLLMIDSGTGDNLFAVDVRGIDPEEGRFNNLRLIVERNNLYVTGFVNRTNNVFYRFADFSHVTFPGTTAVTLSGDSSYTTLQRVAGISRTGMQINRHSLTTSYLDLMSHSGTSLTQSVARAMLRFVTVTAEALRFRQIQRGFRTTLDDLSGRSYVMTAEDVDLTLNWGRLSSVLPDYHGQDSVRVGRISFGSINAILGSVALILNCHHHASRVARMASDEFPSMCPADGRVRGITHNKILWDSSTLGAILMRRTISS
Shiga toxin, sequence (Q7BQ98 21-89, chain 2 of 2): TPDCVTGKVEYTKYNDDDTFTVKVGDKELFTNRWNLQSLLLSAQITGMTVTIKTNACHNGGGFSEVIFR

Ovalbumin, sequence (P01012 2-386, one chain of several): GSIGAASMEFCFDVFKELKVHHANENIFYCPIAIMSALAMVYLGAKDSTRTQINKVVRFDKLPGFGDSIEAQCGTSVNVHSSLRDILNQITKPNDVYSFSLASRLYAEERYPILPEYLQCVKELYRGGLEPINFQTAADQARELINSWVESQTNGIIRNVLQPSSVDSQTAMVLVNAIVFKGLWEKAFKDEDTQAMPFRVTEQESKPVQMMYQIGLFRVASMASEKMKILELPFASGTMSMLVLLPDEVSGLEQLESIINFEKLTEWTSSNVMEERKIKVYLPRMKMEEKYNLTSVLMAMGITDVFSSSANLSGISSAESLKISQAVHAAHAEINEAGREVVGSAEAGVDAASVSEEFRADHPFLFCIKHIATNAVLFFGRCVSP

B1: STJ-9 annealed quenched complex (Plus STJ-9 / Negative STJ-9) (dsDNA)
DNA 1: GGTAACTAGCATTCATTTCCCACACCCGTCCCGTCCATAT
DNA 2: ATATGGACGGGACGGGTGT
modifications: 3' amine on plus strand; 5' BHQ2 on negative strand
Q: Does B1 bind (Ovalbumin)?
A: Result: no binding

B2: Plus STJ-9 (ssDNA)
DNA: GGTAACTAGCATTCATTTCCCACACCCGTCCCGTCCATAT
Q: Does B2 bind (Shiga toxin)?
A: Result: binds
